In the Human Domainome abundance scans (Beltran et al. 2025):
± gives the uncertainty stated by the source.

assay: abundance fitness (aPCA) (normalised: wild type 0, dead -1); higher = more abundant; growth selection in yeast, the domain comes from the species named; conditions: Homo sapiens

Question: With “DnaJ homolog subfamily B member 1 E42N, P25685” as the substance, how does the abundance fitness read?
Answer: Its abundance fitness is 0.027 ± 0.13.

Question: Which abundance fitness does the source give for “DnaJ homolog subfamily B member 1 A23G, P25685” here?
Answer: Its abundance fitness is -0.184 ± 0.08.

Question: Which abundance fitness does the source give for “DnaJ homolog subfamily B member 1 Q27W, P25685” here?
Answer: The abundance fitness was -0.064 ± 0.098.

Question: For “DnaJ homolog subfamily B member 1 E43P, P25685”, which abundance fitness is on record?
Answer: Its abundance fitness is -0.177 ± 0.13.

Question: With “DnaJ homolog subfamily B member 1 T8Y, P25685” as the substance, how does the abundance fitness read?
Answer: The abundance fitness was -0.261 ± 0.05.

Question: For “DnaJ homolog subfamily B member 1 D57N, P25685”, which abundance fitness is on record?
Answer: Its abundance fitness is -0.071 ± 0.29.

Question: With “DnaJ homolog subfamily B member 1 K44P, P25685” as the substance, how does the abundance fitness read?
Answer: Its abundance fitness is -0.717 ± 0.096.

Question: For “DnaJ homolog subfamily B member 1 K21T, P25685”, which abundance fitness is on record?
Answer: The abundance fitness was -0.053 ± 0.064.

Question: Which abundance fitness does the source give for “DnaJ homolog subfamily B member 1 D57T, P25685” here?
Answer: Its abundance fitness is -0.072 ± 0.089.

Question: Which abundance fitness does the source give for “DnaJ homolog subfamily B member 1 R61Q, P25685” here?
Answer: The abundance fitness was -0.336 ± 0.093.

Question: For “DnaJ homolog subfamily B member 1 G40N, P25685”, which abundance fitness is on record?
Answer: The abundance fitness was -0.173 ± 0.18.

Question: With “DnaJ homolog subfamily B member 1 N36L, P25685” as the substance, how does the abundance fitness read?
Answer: The abundance fitness was 0.009 ± 0.054.

Question: Which abundance fitness does the source give for “DnaJ homolog subfamily B member 1 A51R, P25685” here?
Answer: The abundance fitness was -0.84 ± 0.067.

Question: For “DnaJ homolog subfamily B member 1 E19C, P25685”, which abundance fitness is on record?
Answer: Its abundance fitness is -0.291 ± 0.12.

Question: For “DnaJ homolog subfamily B member 1 Y31I, P25685”, which abundance fitness is on record?
Answer: Its abundance fitness is -0.259 ± 0.052.

Question: For “DnaJ homolog subfamily B member 1 I63F, P25685”, which abundance fitness is on record?
Answer: Its abundance fitness is -0.212 ± 0.26.

Question: With “DnaJ homolog subfamily B member 1 I63E, P25685” as the substance, how does the abundance fitness read?
Answer: The abundance fitness was 0.092 ± 0.1.

Question: Which abundance fitness does the source give for “DnaJ homolog subfamily B member 1 S56Q, P25685” here?
Answer: The abundance fitness was -0.25 ± 0.14.

Question: Which abundance fitness does the source give for “DnaJ homolog subfamily B member 1 P33E, P25685” here?
Answer: Its abundance fitness is -0.096 ± 0.087.

Question: Which abundance fitness does the source give for “DnaJ homolog subfamily B member 1 R26G, P25685” here?
Answer: The abundance fitness was -0.117 ± 0.094.

Question: For “DnaJ homolog subfamily B member 1 D53N, P25685”, which abundance fitness is on record?
Answer: The abundance fitness was 0.035 ± 0.12.

Question: With “DnaJ homolog subfamily B member 1 P39R, P25685” as the substance, how does the abundance fitness read?
Answer: The abundance fitness was 0.041 ± 0.1.

Question: For “DnaJ homolog subfamily B member 1 E43R, P25685”, which abundance fitness is on record?
Answer: The abundance fitness was 0.11 ± 0.051.

Question: For “DnaJ homolog subfamily B member 1 L11D, P25685”, which abundance fitness is on record?
Answer: The abundance fitness was -0.776 ± 0.16.

Question: Which abundance fitness does the source give for “DnaJ homolog subfamily B member 1 G14F, P25685” here?
Answer: The abundance fitness was -0.446 ± 0.2.

Question: With “DnaJ homolog subfamily B member 1 R61W, P25685” as the substance, how does the abundance fitness read?
Answer: The abundance fitness was -0.897 ± 0.14.

Question: For “DnaJ homolog subfamily B member 1 E18I, P25685”, which abundance fitness is on record?
Answer: The abundance fitness was -0.173 ± 0.14.

Question: With “DnaJ homolog subfamily B member 1 F64S, P25685” as the substance, how does the abundance fitness read?
Answer: Its abundance fitness is -0.109 ± 0.23.

Question: Which abundance fitness does the source give for “DnaJ homolog subfamily B member 1 E50D, P25685” here?
Answer: Its abundance fitness is -0.074 ± 0.087.

Question: With “DnaJ homolog subfamily B member 1 N36R, P25685” as the substance, how does the abundance fitness read?
Answer: Its abundance fitness is -0.14 ± 0.093.

Question: Which abundance fitness does the source give for “DnaJ homolog subfamily B member 1 A49L, P25685” here?
Answer: The abundance fitness was -0.75 ± 0.086.

Question: For “DnaJ homolog subfamily B member 1 R25H, P25685”, which abundance fitness is on record?
Answer: The abundance fitness was -0.047 ± 0.11.

Question: For “DnaJ homolog subfamily B member 1 Q27C, P25685”, which abundance fitness is on record?
Answer: Its abundance fitness is 0.012 ± 0.14.

Question: With “DnaJ homolog subfamily B member 1 A23L, P25685” as the substance, how does the abundance fitness read?
Answer: The abundance fitness was -0.839 ± 0.053.

Question: For “DnaJ homolog subfamily B member 1 Q7A, P25685”, which abundance fitness is on record?
Answer: Its abundance fitness is -0.386 ± 0.12.

Question: Which abundance fitness does the source give for “DnaJ homolog subfamily B member 1 Y31R, P25685” here?
Answer: The abundance fitness was -0.401 ± 0.086.

Question: Which abundance fitness does the source give for “DnaJ homolog subfamily B member 1 K35W, P25685” here?
Answer: Its abundance fitness is -0.963 ± 0.095.

Question: For “DnaJ homolog subfamily B member 1 R30K, P25685”, which abundance fitness is on record?
Answer: Its abundance fitness is -0.086 ± 0.098.

Question: With “DnaJ homolog subfamily B member 1 Y24V, P25685” as the substance, how does the abundance fitness read?
Answer: Its abundance fitness is -0.547 ± 0.09.

Question: For “DnaJ homolog subfamily B member 1 G10P, P25685”, which abundance fitness is on record?
Answer: Its abundance fitness is -0.926 ± 0.21.

Question: For “DnaJ homolog subfamily B member 1 P39V, P25685”, which abundance fitness is on record?
Answer: The abundance fitness was 0.001 ± 0.12.
